Experimental data as given in paper PMC4321091, “Recombinant Cyclodextrinase from Thermococcus kodakarensis KOD1: Expression, Purification, and Enzymatic Characterization” (Archaea, 2015).

Substrate: OC[C@H]1O[C@@H]2O[C@H]3[C@H](O)[C@@H](O)[C@@H](O[C@H]4[C@H](O)[C@@H](O)[C@@H](O[C@H]5[C@H](O)[C@@H](O)[C@@H](O[C@H]6[C@H](O)[C@@H](O)[C@@H](O[C@H]7[C@H](O)[C@@H](O)[C@@H](O[C@H]8[C@H](O)[C@@H](O)[C@@H](O[C@H]1[C@H](O)[C@H]2O)O[C@@H]8CO)O[C@@H]7CO)O[C@@H]6CO)O[C@@H]5CO)O[C@@H]4CO)O[C@@H]3CO
Assay: purified protein
Format: biochemical, Thermococcus kodakarensis
Conditions: 20 mM Tris-HCl pH 7.5, 65°C, 1-10 mg/mL β-CD

B1: CDase-Tk (Tk1770) (Thermococcus kodakarensis KOD1) (protein)
chain: MYKVFGFEENFIHGRVARVEFSLPDAGRWDYAYLLGNFNAFNEGSFRMKHEDKRWIIEIKLPEGLWRYAFSAGGEFLLDPENPEKELYRRPSYKFEREVSLAKIAGNDMVFHRPALLYLYSFGDRTHVLLRSKKGKVDAAYLVTDDTHVKMRKKADGEVFEYYEAVLQETEKLRYSFEVFLKEGKSLTLGPFEAAPFRLDAPSWILDRVFYQIMPDRFAKGRDHEPPFLSWEYYGGDLWGIVEKIDHLEELGVNALYLTPIFESMTYHGYDITDYLRVAERLGGEEAFRELVKALKSRDIKLVLDGVFHHTSFFHPFFRDVVERGEESEYADFYRVKGFPVVSEEFIRVLKSDLPPMEKYQTLKKMGWNYESFFSVWVMPRLNHDSPKVREFVARVMNYWLEKGADGWRLDVAHGVPPGFWREVREGLPDDAYLFGEVMDDPRLYLFGVFHGVMNYPLYDLLLRFFAFGEIGATEFINGIELLSAHLGPAEYFTYNFLDNHDTERFIDLAGKERYLCALTFLMTYKGIPAIFYGDEIGLRGSGEGMSAGRTPMSWDEEKWDFQILRQTMKLIELRRSLKSLQVGSFRVIGAGEKWFVYERKAGSERVLVGINCSWNDVETPVPSNGSNEQIKIPAFSSIIRVKDSMNVHIGSDLQE
notes: pET28a EcoRI/XhoI, E. coli BL21(DE3), DEAE purified
Km: 3.13 ± 0.47 mg/mL
kcat: 34.6 s⁻¹
